The results in this text go back to US20140274782A1, “AFFINITY REAGENTS AND METHODS FOR DETECTION, PURIFICATION, AND PROTEOMIC ANALYSIS OF METHYLATED PROTEINS” (The Board of Trustees of the Leland Stanford Junior …, priority 2013, published 2014).

Test [1] relates to 3×MBT domain of L3MBTL1. The test can be described thus: Triple SILAC pull-down, 3xMBT/3xMBTD355N ratio (cytoplasmic, nuclear and chromatin fractions of 293T cells).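 As to all read-outs here: proteins quantified with MaxQuant, requiring at least two unique peptides and quantification in both label directions, normalized to the mean of proteins from a digested loading control.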 To be noted: SILAC ratio, pull-down 3xMBT vs 3xMBTD355N; for 3xMBT/D355N UNC Heavy: experiment with UNC0638 in heavy SILAC media; for 3xMBT/D355N UNC Light: experiment with UNC0638 in light SILAC media. In kind it is binding, human.

Test [2] has as its target T1, G9a and GLP (Homo sapiens, UniProt Q96KQ7+Q9H9B1).
T1 sequence (Q96KQ7 2-1210 limits assumed): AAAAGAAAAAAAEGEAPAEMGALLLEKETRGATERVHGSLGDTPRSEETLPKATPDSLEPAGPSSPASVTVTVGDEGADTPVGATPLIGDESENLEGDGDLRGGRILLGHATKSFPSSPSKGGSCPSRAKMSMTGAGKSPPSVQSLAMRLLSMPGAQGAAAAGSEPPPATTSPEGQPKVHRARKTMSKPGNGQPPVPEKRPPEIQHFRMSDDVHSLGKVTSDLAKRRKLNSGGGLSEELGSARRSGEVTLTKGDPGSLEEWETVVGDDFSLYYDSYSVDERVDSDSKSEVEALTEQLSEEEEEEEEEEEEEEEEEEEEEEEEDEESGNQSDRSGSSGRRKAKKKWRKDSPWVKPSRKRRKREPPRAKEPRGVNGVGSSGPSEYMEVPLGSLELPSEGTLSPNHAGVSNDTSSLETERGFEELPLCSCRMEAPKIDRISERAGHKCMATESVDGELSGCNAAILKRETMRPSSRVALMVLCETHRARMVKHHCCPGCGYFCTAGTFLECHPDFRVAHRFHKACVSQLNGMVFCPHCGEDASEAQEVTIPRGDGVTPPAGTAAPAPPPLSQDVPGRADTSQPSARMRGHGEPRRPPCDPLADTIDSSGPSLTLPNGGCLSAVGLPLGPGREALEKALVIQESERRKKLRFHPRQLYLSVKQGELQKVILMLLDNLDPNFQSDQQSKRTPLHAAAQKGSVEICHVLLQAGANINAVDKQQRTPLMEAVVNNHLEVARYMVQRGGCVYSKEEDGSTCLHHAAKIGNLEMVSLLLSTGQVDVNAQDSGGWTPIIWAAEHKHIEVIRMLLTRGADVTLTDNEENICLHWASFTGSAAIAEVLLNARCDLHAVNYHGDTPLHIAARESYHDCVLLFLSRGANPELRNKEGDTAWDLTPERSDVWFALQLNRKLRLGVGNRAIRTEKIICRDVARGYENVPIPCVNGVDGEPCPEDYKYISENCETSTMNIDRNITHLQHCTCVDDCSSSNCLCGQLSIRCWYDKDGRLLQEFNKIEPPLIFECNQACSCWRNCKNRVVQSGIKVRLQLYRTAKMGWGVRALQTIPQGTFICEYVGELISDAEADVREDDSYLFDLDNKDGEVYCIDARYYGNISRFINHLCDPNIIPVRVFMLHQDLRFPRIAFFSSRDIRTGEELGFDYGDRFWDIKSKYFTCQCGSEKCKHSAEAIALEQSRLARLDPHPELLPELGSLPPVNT
T1 sequence (Q9H9B1 2-1298 limits assumed): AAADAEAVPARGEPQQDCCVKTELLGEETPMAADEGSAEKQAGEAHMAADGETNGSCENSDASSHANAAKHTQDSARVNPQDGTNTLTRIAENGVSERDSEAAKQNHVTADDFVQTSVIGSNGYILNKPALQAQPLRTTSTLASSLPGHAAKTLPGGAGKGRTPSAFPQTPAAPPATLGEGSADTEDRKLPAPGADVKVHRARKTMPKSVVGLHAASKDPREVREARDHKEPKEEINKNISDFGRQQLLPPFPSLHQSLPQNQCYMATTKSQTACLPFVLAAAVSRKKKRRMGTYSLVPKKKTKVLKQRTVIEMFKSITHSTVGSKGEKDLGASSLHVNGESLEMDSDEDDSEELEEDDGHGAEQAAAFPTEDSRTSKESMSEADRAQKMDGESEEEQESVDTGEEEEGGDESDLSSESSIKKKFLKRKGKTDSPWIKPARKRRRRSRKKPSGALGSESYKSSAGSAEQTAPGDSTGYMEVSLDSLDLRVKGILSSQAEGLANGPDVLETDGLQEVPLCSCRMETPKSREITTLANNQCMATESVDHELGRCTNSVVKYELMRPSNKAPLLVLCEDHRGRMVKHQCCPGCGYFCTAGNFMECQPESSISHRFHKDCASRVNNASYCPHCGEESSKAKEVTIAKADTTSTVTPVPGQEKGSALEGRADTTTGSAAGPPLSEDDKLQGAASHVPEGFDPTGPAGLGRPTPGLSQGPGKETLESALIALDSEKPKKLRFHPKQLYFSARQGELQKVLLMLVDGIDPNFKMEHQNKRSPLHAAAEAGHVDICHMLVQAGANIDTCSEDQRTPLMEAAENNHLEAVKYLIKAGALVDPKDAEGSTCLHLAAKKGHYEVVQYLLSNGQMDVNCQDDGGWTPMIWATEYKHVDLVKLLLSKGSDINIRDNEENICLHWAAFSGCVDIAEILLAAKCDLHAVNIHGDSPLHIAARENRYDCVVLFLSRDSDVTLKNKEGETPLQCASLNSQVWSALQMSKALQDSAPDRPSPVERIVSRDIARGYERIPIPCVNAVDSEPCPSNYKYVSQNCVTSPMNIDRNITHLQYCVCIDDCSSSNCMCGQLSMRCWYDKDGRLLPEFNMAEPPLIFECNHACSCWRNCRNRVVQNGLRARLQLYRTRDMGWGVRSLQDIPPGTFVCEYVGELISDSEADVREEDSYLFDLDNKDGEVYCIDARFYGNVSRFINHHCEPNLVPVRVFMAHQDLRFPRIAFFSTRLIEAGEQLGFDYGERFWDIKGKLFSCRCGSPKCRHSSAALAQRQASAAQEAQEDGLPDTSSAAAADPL
The test can be described thus: Triple SILAC pull-down after UNC0638 treatment of 293T cells, DMSO/UNC0638 ratio of protein captured by 3×MBT.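 As to all read-outs here: mass spectrometry (Q-Exactive) SILAC quantitation, DMSO/UNC0638 ratio computed after subtracting 3×MBTD355N mutant pull-down background, only proteins with at least twofold 3×MBT over mutant signal considered.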 Format: cell-based. More on the design: cells were treated for 24 hours with UNC0638 at 2.5 μM or DMSO vehicle control; endogenous in cells; host or cells: HEK 293T. To be noted: for Relative to UNC0638 UNC Heavy / Relative to UNC0638 UNC Light: SILAC ratio DMSO/UNC0638 of protein pulled down with 3xMBT; for Relative to UNC0638 UNC Heavy: UNC0638 in heavy SILAC media; for Relative to UNC0638 UNC Light: UNC0638 in light SILAC media; for Relative to UNC0638 Average: average of UNC Light and UNC Heavy experiments.

B1: DDX23 (protein, UniProt Q9BUQ8 1-820, looked up)
Probable ATP-dependent RNA …: MAGELADKKDRDASPSKEERKRSRTPDRERDRDRDRKSSPSKDRKRHRSRDRRRGGSRSRSRSRSKSAERERRHKERERDKERDRNKKDRDRDKDGHRRDKDRKRSSLSPGRGKDFKSRKDRDSKKDEEDEHGDKKPKAQPLSLEELLAKKKAEEEAEAKPKFLSKAEREAEALKRRQQEVEERQRMLEEERKKRKQFQDLGRKMLEDPQERERRERRERMERETNGNEDEEGRQKIREEKDKSKELHAIKERYLGGIKKRRRTRHLNDRKFVFEWDASEDTSIDYNPLYKERHQVQLLGRGFIAGIDLKQQKREQSRFYGDLMEKRRTLEEKEQEEARLRKLRKKEAKQRWDDRHWSQKKLDEMTDRDWRIFREDYSITTKGGKIPNPIRSWKDSSLPPHILEVIDKCGYKEPTPIQRQAIPIGLQNRDIIGVAETGSGKTAAFLIPLLVWITTLPKIDRIEESDQGPYAIILAPTRELAQQIEEETIKFGKPLGIRTVAVIGGISREDQGFRLRMGCEIVIATPGRLIDVLENRYLVLSRCTYVVLDEADRMIDMGFEPDVQKILEHMPVSNQKPDTDEAEDPEKMLANFESGKHKYRQTVMFTATMPPAVERLARSYLRRPAVVYIGSAGKPHERVEQKVFLMSESEKRKKLLAILEQGFDPPIIIFVNQKKGCDVLAKSLEKMGYNACTLHGGKGQEQREFALSNLKAGAKDILVATDVAGRGIDIQDVSMVVNYDMAKNIEDYIHRIGRTGRAGKSGVAITFLTKEDSAVFYELKQAILESPVSSCPPELANHPDAQHKPGTILTKKRREETIFA
With B1, in test [1], the “3xMBT/D355N UNC Heavy” value was 2.24 log base 2 and the “3xMBT/D355N UNC Light” value came out at 2.27 log base 2. Further, in test [2], the “Relative to UNC0638 UNC Heavy” value came to 0.29 log base 2, the “Relative to UNC0638 UNC Light” value amounted to 0.54 log base 2 and the “Relative to UNC0638 Average” value is on record as 0.42 log base 2. Also, the “Candidate G9a/GLP target” value in test [2] (reduced association with 3xMBT after UNC0638 treatment) was “✓”.

B2: ZNF598 (protein, UniProt Q86UK7 1-904, looked up)
E3 ubiquitin-protein ligase …: MAAAGGAEGRRAALEAAAAAAPERGGGSCVLCCGDLEATALGRCDHPVCYRCSTKMRVLCEQRYCAVCREELRQVVFGKKLPAFATIPIHQLQHEKKYDIYFADGKVYALYRQLLQHECPRCPELPPFSLFGDLEQHMRRQHELFCCRLCLQHLQIFTYERKWYSRKDLARHRMQGDPDDTSHRGHPLCKFCDERYLDNDELLKHLRRDHYFCHFCDSDGAQDYYSDYAYLREHFREKHFLCEEGRCSTEQFTHAFRTEIDLKAHRTACHSRSRAEARQNRHIDLQFSYAPRHSRRNEGVVGGEDYEEVDRYSRQGRVARAGTRGAQQSRRGSWRYKREEEDREVAAAVRASVAAQQQEEARRSEDQEEGGRPKKEEAAARGPEDPRGPRRSPRTQGEGPGPKETSTNGPVSQEAFSVTGPAAPGCVGVPGALPPPSPKLKDEDFPSLSASTSSSCSTAATPGPVGLALPYAIPARGRSAFQEEDFPALVSSVPKPGTAPTSLVSAWNSSSSSKKVAQPPLSAQATGSGQPTRKAGKGSRGGRKGGPPFTQEEEEDGGPALQELLSTRPTGSVSSTLGLASIQPSKVGKKKKVGSEKPGTTLPQPPPATCPPGALQAPEAPASRAEGPVAVVVNGHTEGPAPARSAPKEPPGLPRPLGSFPCPTPQEDFPALGGPCPPRMPPPPGFSAVVLLKGTPPPPPPGLVPPISKPPPGFSGLLPSPHPACVPSPATTTTTKAPRLLPAPRAYLVPENFRERNLQLIQSIRDFLQSDEARFSEFKSHSGEFRQGLISAAQYYKSCRDLLGENFQKVFNELLVLLPDTAKQQELLSAHTDFCNREKPLSTKSKKNKKSAWQATTQQAGLDCRVCPTCQQVLAHGDASSHQALHAARDDDFPSLQAIARIIT
For the molecule B2, in test [1], the “3xMBT/D355N UNC Heavy” value is listed as 1.92 log base 2 and the “3xMBT/D355N UNC Light” value is recorded as 3.58 log base 2. In addition, in test [2], the “Relative to UNC0638 UNC Heavy” value is recorded as 0.52 log base 2, the “Relative to UNC0638 UNC Light” value is given as 0.06 log base 2 and the “Relative to UNC0638 Average” value is reported as 0.29 log base 2.

B3: NTHL1 (protein, UniProt P78549 23-304, looked up)
Endonuclease III-like protein …: GCREEPGPLRRREAAAEARKSHSPVKRPRKAQRLRVAYEGSDSEKGEGAEPLKVPVWEPQDWQQQLVNIRAMRNKKDAPVDHLGTEHCYDSSAPPKVRRYQVLLSLMLSSQTKDQVTAGAMQRLRARGLTVDSILQTDDATLGKLIYPVGFWRSKVKYIKQTSAILQQHYGGDIPASVAELVALPGVGPKMAHLAMAVAWGTVSGIAVDTHVHRIANRLRWTKKATKSPEETRAALEEWLPRELWHEINGLLVGFGQQTCLPVHPRCHACLNQALCPAAQGL
B3: in test [1], the “3xMBT/D355N UNC Heavy” value came to 0.48 log base 2 and the “3xMBT/D355N UNC Light” value was 1.60 log base 2. Also, in test [2], the “Relative to UNC0638 UNC Heavy” value came to 0.72 log base 2, the “Relative to UNC0638 UNC Light” value is −0.12 log base 2 and the “Relative to UNC0638 Average” value worked out at 0.30 log base 2.
